Measurements reported in US8530168B2, “Fusion protein comprising a Caspase domain and a nuclear hormone receptor binding domain and methods and uses thereof” (Helmholtz Zentrum Munich Deutsches Forschungszentrum fuer …, priority 2007, dated 2013).

B1: HAFas-ER(T2): HA epitope, transmembrane and intracellular domain of murine Fas (135-305) fused to ER(T2); planned positive control (protein)
chain: MGYPYDVPDYATSNTNCRKQSPRNRLWLLTILVLLIPLVFIYRKYRKRKCWKRRQDDPESRTSSRETIPMNASNLSLSKYIPRIAEDMTIQEAKKFARENNIKEGKIDEIMHDSIQDTAEQKVQLLLCWYQSHGKSDAYQDLIKGLKKAECRRTLDKFQDMVQKDLGKSTPDTGNENEGQCLVEPSAGDMRAANLWPSPLMIKRSKKNSLALSLTADQMVSALLDAEPPILYSEYDPTRPFSEASMMGLLTNLADRELVHMINWAKRVPGFVDLTLHDQVHLLECAWLEILMIGLVWRSMEHPVKLLFAPNLLLDRNQGKCVEGMVEIFDMLLATSSRFRMMNLQGEEFVCLKSIILLNSGVYTFLSSTLKSLEEKDHIHRVLDKITDTLIHLMAKAGLTLQQQHQRLAQLLLILSHIRHMSNKGMEHLYSMKCKNVVPLYDLLLEAADAHRLHAPTSRGGASVEETDQSHLATAGSTSSHSLQKYYITGEAEGFPATA
modifications: fusion protein HAFas-ER(T2)
notes: planned positive control
B2: MFas-ER(T2): membrane-targeting signal peptide, transmembrane and intracellular domain of murine Fas fused to ER(T2); planned positive control (protein)
chain: MLWIWAVLPLVLAGSQLRVHTTSNTNCRKQSPRNRLWLLTILVLLIPLVFIYRKYRKRKCWKRRQDDPESRTSSRETIPMNASNLSLSKYIPRIAEDMTIQEAKKFARENNIKEGKIDEIMHDSIQDTAEQKVQLLLCWYQSHGKSDAYQDLIKGLKKAECRRTLDKFQDMVQKDLGKSTPDTGNENEGQCLVEPSAGDMRAANLWPSPLMIKRSKKNSLALSLTADQMVSALLDAEPPILYSEYDPTRPFSEASMMGLLTNLADRELVHMINWAKRVPGFVDLTLHDQVHLLECAWLEILMIGLVWRSMEHPVKLLFAPNLLLDRNQGKCVEGMVEIFDMLLATSSRFRMMNLQGEEFVCLKSIILLNSGVYTFLSSTLKSLEEKDHIHRVLDKITDTLIHLMAKAGLTLQQQHQRLAQLLLILSHIRHMSNKGMEHLYSMKCKNVVPLYDLLLEAADAHRLHAPTSRGGASVEETDQSHLATAGSTSSHSLQKYYITGEAEGFPATA
modifications: fusion protein MFas-ER(T2)
notes: membrane-targeting signal peptide, transmembrane and intracellular domain of murine Fas fused to ER(T2); planned positive control

Legend:
[1] = system: M5/N9 cells expressing myrCasp8-ER(T2); assay: Ligand dose response, MTT assay, in cells expressing myrCasp8-ER(T2); type: cell-based, murine; settings: 48 hours, data not shown
Procedure: (b) Transient cotransfection of a β-galactosidase reporter with a Cre-ER(T2), myrCasp8-ER(T2), or Casp9-ER(T2) expression plasmid into murine M5/N9 (black columns), human HeLa (grey columns) or zebrafish Pac2 (open columns) cells. 12 h following transfection, cells were cultured for 36 h with 4-OH-tamoxifen at 10^−8 M and the activity of β-galactosidase in cell lysates was determined. Values obtained from transfections of the Cre-ER(T2) vector were defined as reference.
To quantify 4-OH-tamoxifen-inducible cell death, we applied the colorimetric MTT assay (Mossman, J. Immunol. Methods, 65, 55 (1983)) allowing the quantification of cell survival. Cells (4·10^3) were plated on 96-well plates. The assay was carried out in three replicas for each sample treated with and without 4-OH-tamoxifen. After 12 h, medium was replaced either with fresh medium or with medium supplemented with 10^−8 M 4-OH-tamoxifen. […] The crystals were dissolved in 150 μl 0.04 N HCl/isopropanol to give a homogeneous blue solution suitable for absorbance measurement at a wavelength of 570 nm on the Synergy™ HT Multi-Detection Microplate Reader (BioTek).
Cell viability was determined following 48 hours of incubation with the respective ligand at concentrations ranging from 10^−6 M to 10^−12 M by using the MTT assay. […]

[2] = system: MEF5/N9 cells; assay: Visible phenotypic changes / viability of stably transfected MEF5/N9 clones on 4-OH-tamoxifen treatment; type: cell-based, mouse; settings: 10^−8 M 4-OH-tamoxifen, 24 h
Procedure: (§1) To generate stably transfected MEF5/N9 cells, 2·10^6 cells were coelectroporated with 32 μg ER(T2) fusion plasmid DNA linearised with ScaI and 8 μg pPgk-hygro-pA plasmid DNA linearised with XhoI and plated into two 96-well plates. The cells were grown in DMEM medium (Invitrogen) supplemented with 2 mM Glutamine and 10% fetal calf serum at 37° C., 5% CO2 in humid atmosphere, and passaged upon trypsinization. Two days after transfection the medium was supplemented with 250 U/ml of hygromycin (Calbiochem) for the selection of stable integrants. Upon the growth of resistant colonies these were individually expanded in the presence of hygromycin.
To examine 4-OH-tamoxifen-dependent cell death, 1·10^5 MEF5/N9 cells expressing ER(T2) fusion proteins were plated into each well of a six-well plate. The following day, for each sample the medium in two of four individual wells were replaced with medium supplemented with 10^−8 M 4-hydroxy-tamoxifen. 24 hours after induction with 4-OH-tamoxifen, cells were photographed through a Leica DMI6000B fluorescence microscope with phase contrast either at 10-fold or 20-fold magnification.
Since the responsiveness of the clones, transfected with the same construct, to 4-OH-tamoxifen differed only slightly from each other, only the results obtained from one clone for each construct are shown in the figure.

[3] = system: MEF5/N9 cells; assay: MTT cytotoxicity assay of stably transfected MEF5/N9 clones; type: cell-based, mouse; settings: 10^−8 M 4-OH-tamoxifen, 48 h
Procedure: as §1
To quantify 4-OH-tamoxifen-inducible cell death, we applied the colorimetric MTT assay (Mossman, J. Immunol. Methods, 65, 55 (1983)) allowing the quantification of cell survival. Cells (4·10^3) were plated on 96-well plates. The assay was carried out in three replicas for each sample treated with and without 4-OH-tamoxifen. After 12 h, medium was replaced either with fresh medium or with medium supplemented with 10^−8 M 4-OH-tamoxifen. Following 48 h of 4-OH-tamoxifen treatment, sterile filtered MTT reagent in PBS (Sigma) was added at the concentration of 0.5 mg/ml. Incubation occurred for 4 hours at 37° C. With ongoing reaction time, dark violet MTT formazan crystals appeared on the bottom of the wells containing living cells. The crystals were dissolved in 150 μl 0.04 N HCl/isopropanol to give a homogeneous blue solution suitable for absorbance measurement at a wavelength of 570 nm on the Synergy™ HT Multi-Detection Microplate Reader (BioTek).

[4] = system: MEF5/N9 cells; assay: Transient cotransfection of ER(T2) fusion expression vectors with β-galactosidase reporter; β-galactosidase activity in lysates; type: cell-based, mouse; settings: no 4-OH-tamoxifen; transient transfection 50 or 100 ng vector; relative to Cre-ER(T2) without 4-OH-tamoxifen
[5] = system: MEF5/N9 cells; assay: as above; type: cell-based, mouse; settings: 10^−8 M 4-OH-tamoxifen, 48 h; relative to Cre-ER(T2) without 4-OH-tamoxifen
Procedure: The transformed mouse embryonic fibroblast cell line MEF5/N9 (Schwenk et al., Nucleic Acids Research, 26(6) 1427-1432 (1998)) was obtained from Michel Aguet (University of Zurich, Switzerland). The cells were grown in DMEM medium (Life Technologies) supplemented with 2 mM […] and 10% fetal calf serum at 37° C., 5% CO2 in humid atmosphere and passaged upon trypsinization. One day before transient transfection 4·10^4 cells were plated into a 24-well plate (Falcon). For the transient transfection of MEF5/N9 cells with plasmids, each well received into 500 μl of medium a total amount of 150 ng or 200 ng supercoiled plasmid DNA complexed before with the FuGene6 transfection reagent (Roche Diagnostics GmbH, Mannheim, Germany) according to the manufacturer's protocol. Each 150 ng or 200 ng DNA preparation (FIG. 2 sample 1 to 11) contained 100 ng of the β-Galactosidase expression vector pCMV-β-gal-pA (pCMVβ, Clontech, FIG. 1G, SEQ ID NO: 56), and 100 ng of the fusion ER(T2) expression vectors to be tested (FIG. 2 sample 3-7, 10-11) and the control plasmids (FIG. 2 sample 1-3), except for the samples with the plasmids pCAG-Casp9full-ER(T2)-bpA (FIG. 2 sample 8) and pCAG-Casp9trunc-ER(T2)-bpA (FIG. 2 sample 9), respectively, that received 50 ng of the test vector. For each sample to be tested four individual wells were transfected. Five hours after the addition of the DNA preparations each well received additional 500 μl of growth medium. The following day, the medium of two wells of each sample was replaced by fresh medium. The other two wells received medium containing 10^−8 M 4-hydroxy-tamoxifen (Sigma). 48 hours after induction with 4-OH-tamoxifen, the cells of each well were lysed with 200 μl lysate reagent supplemented with protease inhibitors (Roche Diagnostics GmbH). The lysates were centrifuged and 50 μl were used to determine the β-galactosidase activities using the β-galactosidase reporter gene assay (Roche Diagnostics GmbH) according to the manufacturer's protocol in a microplate luminometer (Berthold Detection Systems GmbH). The mean value and standard deviation of the samples was calculated from the β-galactosidase RLU values obtained from the two transfected wells of each sample. The relative β-galactosidase activity was obtained by comparison to the negative control (pCAG-Cre-ER(T2)-bpA) without 4-OH-tamoxifen.
To investigate the cell death effect of the different ER(T2) fusion constructs quantitatively, we performed transient cotransfections of the ER(T2) fusion protein expression vectors together with a fixed amount of a reporter plasmid coding for β-galactosidase in MEF5/N9 fibroblast cells. Transfected cells were treated 12 hours after transfection with 4-OH-tamoxifen at a concentration of 10^−8 M. Following 48 hours of 4-OH-tamoxifen induction, the cells from the various samples were lysed and the activity of β-galactosidase in the lysates was determined by a chemiluminescence assay and expressed in “Relative Light Units” (RLU) (FIG. 2). As positive controls for 4-OH-tamoxifen-inducible cell death, we prepared samples transfected with the constructs pCAG-HAFas-ER(T2) or pCAG-MFas-ER(T2) together with the reporter plasmid and treatment with 4-OH-tamoxifen. As negative control for this assay served samples which received the reporter plasmid together with the expression vector pCAG-Cre-ER(T2) and that were treated with 4-OH-tamoxifen.
To determine the relative activity of the tested ER(T2) fusion constructs inducing apoptosis in the presence of 4-OH-tamoxifen, the RLU values of β-galactosidase activity were divided individually for each sample by the RLU value obtained from the sample which received the plasmid pCAG-Cre-ER(T2) but was not treated with 4-OH-tamoxifen (defined as negative control). The relative activity of the tested Caspase- or bax-ER(T2) fusion proteins was then compared to the negative control for 4-OH-tamoxifen-dependent cell death defined as an activity of 1.

| Molecule | ligand concentration required to induce cell death [1] | 4-OH-tamoxifen-dependent cell death, phenotype of stable clones [2] | cell viability in the presence of 4-OH-tamoxifen (MTT) [3] | basal toxicity: relative β-galactosidase activity compared to the negative control in absence of 4-OH-tamoxifen [4] [%] | relative β-galactosidase activity in presence of 4-OH-tamoxifen compared to the negative control [5] [%] |
| --- | --- | --- | --- | --- | --- |
| C[C@]12CC[C@@H]3c4ccc(O)cc4CC[C@H]3[C@@H]1CC[C@@H]2O [E2, 17-β-estradiol] | ≥ 10^−7 M |  |  |  |  |
| B1 |  | not affected by the treatment with 4-OH-tamoxifen | not affected by treatment with 4-OH-tamoxifen | 52 | 23 |
| B2 |  | not affected by the treatment with 4-OH-tamoxifen | not affected by treatment with 4-OH-tamoxifen | 60 | 26 |
